# Test results from the DeepSol protein solubility set.
# Experiment: soluble on expression in E. coli; label from the status in PepcDB or PDB records
row,Sequence,soluble on expression in E. coli
1,MSESGHRKGQAIIVQYSDSSSAYYAYAEGIEDDIIISSRYCPSNEDLLGKWIHLAIDDRSYACDTIQVIDDVFETKVFRGQVEVKINIQFDGRTARGMGMFYNDYFGYICDPNNVLHNTRDGANHNNVWVVRRNAEGLNSRWKVSSEQDDIQHIFPRPENVDKLETVVGVITTHAKLGDFYLVWSPSRPRSTICIAYKFCPSKSNLLGTWAEMRVNRSQRVQRPISVIDALYETRTIFGMTEFRIDFQQTRRFNPDYHLFYHEYFGGILDTLCIIDDVKEGGWYNGWIVYSQHSDASTYWRLAMKQTVLGPYNSPYSCLSPLQQDNNFNEPRNMDPNPPYRTRDRSRSMDRSTRHATRRVDEFTHKRRSPSPEVINVYKEPSRSHANELYDSQKNQYTSHEGHSTSSPTAENRQCHRSRSPEQSNFRPSQTVPGLSSMEQRKAHENVDWGPHRTKNVPPIRSATETPETDHRQDDQSVASTSALYLLDSPGPDPSPKLHLTSEEKELKKLKTKLSRICKLSLSFTANDSVSTPMQLHSLEEYEELIKLTNKFQ,not soluble
2,MDVAGEKQQRKGEAIARIEAEKNAYTVAQLADEYFERMIAGRWKHPNIVRSRIEKDIKPAIGSLKVEDVKPRHIDDVLKAVMKRGAPSIANDTLRWLKRMFNYAIKRHIIEYNPAAAFLEHHHHHH,not soluble
3,GMQFPSIEDLRARNTMKWTRYGQGVLPLWVAESDFSTCPAVLQAITDAVQREAFGYQPDGSLLSQATAEFYADRYGYQARPEWIFPIPDVVRGLYIAIDHFTPAQSKVIVPTPAYPPFFHLLSATQREGIFIDATGGINLHDVEKGFQAGARSILLCNPYNPLGMVFAPEWLNELCDLAHRYDARVLVDEIHAPLVFDGQHTVAAGVSDTAASVCITITAPSKAWNIAGLKCAQIIFSNPSDAEHWQQLSPVIKDGASTLGLIAAEAAYRYGTDFLNQEVAYLKNNHDFLLHEIPKRIPGAKITPMQATYLMWIDFRDTTIEGSPSEFFIEKAKVAMNDGAWFGEDGTGFCRLNFATSREVLEEAIDRMAKAVSHHT,soluble
4,MNEDIDMLIIANDLKQRGRKSIISGKFIFINMANEYEYVVYPVNENKTLSVKELEEFVDFSNRIKKKGVIAIVDKYGDVTYYLLSEINLGKK,soluble
5,MTKQQKGFVTGQPTGALNLSDILDSEELGEYHLMSAAIITGNTVDFSGLGAGPDDPFEIASITKIFTGELLRLQIERGEITESTAVGDVLGERVADSLIRDITVEELANHTSGLPRLGNVGLRPFMATFFDKNPYKDLSADRVISISTTSKLNSRGEFHYSNLGFALLGQVLARNAGLTFDQLLDRDLLAPLNLNNTKLMTPESLAQDAPQGFSTPGKQVEAWEMDGFLPAAGLRSTARDMAVFCQYLFTKGPAPFTWQSLESAPEIVWHNGESFGYSSVLFFNTATTTAIFVAADVATSVFPIGHELLMANSTRQESKLEHHHHHH,not soluble
6,SSSSDESEVKEAPKEEAKADKPKVSAPAQRGSDFANIGPMYPLDPFTLNLLSDSGSRYVKCTIELEQNSELLKPELDKKVPVIRDIIIRTLTAKTFEEVSTQKGKERLKDELVGKINEILTDGFIKNVYFTDFVVS,not soluble
7,MKIRALLLALGMATVLTGCQNMDSNGLLSSGAEAFQAYTLSDAQVKALSDQSCQELDSKAKIAPASSEYTKRLAKIAAALGDNINGQPVNYKVYETKDVNAFAMANGCIRVYSGLMDMMTDNEVEAVIGHEMGHVALGHVKKGMQVALGTNAVRVAAASAGGVVGSLSQSQLGDLGEKLVNSQFSQRQESEADDYSYDLLRKRGISPAGLATSFEKLAKLEAGRQSSMFDDHPASAARAQHVRDRMSADGIKLEHHHHHH,soluble
8,QDIAADIAPERVSNDPLVNLGEAVVEEEEKVGALEDLFMETKQDGVNTDDPIAHLKFSMQREDDYLIRDVEKPEPAPAKTIENTRQVVDDSFSIHSEFDIPNLIPEDWLGGVATSKESVEPAAEQAKQAAFIPEDFAHTKPVSPQASVVQPDVNQPQQPQYEAPLSHATSNVTQRAEPVSQKWEEVTQAFVPSAQPTQPETKAKEAQQGFVSNESLAIESVAHSSDIGKAFYEGLGISNPDLISNEALLFKQMGACLRLCIDNLQKDLHEVESLKGEQGLSEADSNLAELMLTLNSQNLLSPNELVEQMLDELNDHQIIFNKALNELLIEQSETNDPVMFANDVASKSMFTTKSKLWGEYLEFYANNRRQMNETSLKGLIKKNYTKAIKGSHA,not soluble
9,MAHHHHHHMSGENIKNLLAPQPTVDQGPYSGKYEKRMVDLPKPTYSTFYNKNKEFDSTHPRYFKQRDAVIGPIVNDTVDPKNFLRTGQGIKHIVPPVPHKKQHRKDFLDCGDIRKRTQGAMEPADQQQKESSGMGGMGSLANTNGVGGQAGDGIREHDMSSNDPERKGEQANGGDTGLRGTGNVESAVGSCDNKNNFQGAATGDNGRCHLNSLDRSRCKKDFVTSNIIDVDNMVPKRRKDQPEDPTRRKTFGRVPGYIGRVKEVIEKERMQLKAIGEARTNNRLERVGKFVYRLDEQERLNMISKLRAKLTEKGAELNRMPFAKDTYIQMKRKSDLEKRIKEIESSLEKLEKDAVFIYSDDPRVVHWTKDAAFEEARLFASD,not soluble
10,GPGSMTEHICASLVLTRGPEGLQRRLPVRLPLSGKPITIGRAIDNDVVLEMDLIFSSQWHCQMFAQKCEPETSERVEEREAASDPSRCEGRHVDCEGQTEIPVKEQYSLWLVDVGSSNGTFVNGIRVASSAPTPLHHGDVIVLGGMRDVEVGKSLPMEDLPLEIVTWRVAMEGKSEEGFGFVATPPVFLSMEFVISQARQRALGALQDSPDPKVSTTSPLKLPLKRMRHEQETGSNKLYDDGDVTPKRRIREVSYPSGEDRSGGELARRSGTVAAYLDPNEANAWEVTTNSSSDVASTTGLPCPSSKATASRGYCNSDALAEPTKEDARETRVAPAVARETVQ,soluble
11,GMMNTTTLDRYFDLFDASRTDEKAFDDLISLFSDEITFVLNGQEQHGIDAWKQFVRMVFTANQDIKHMYAGWVPSETGDTMETRWAVCGKSADGSVFTQDGTDIARLNADGKIVYLANVPDDTAMFNQYND,soluble
12,MERFLRLGGLGGNLGTFGANPQDSNQVDTSETVYISSLALLKMLKHGRAGVPMEVMGLMLGEFVDDYTVNVIDVFAMPQSGTGVSVEAVDPVFQAKMLDMLKQTGRPEMVVGWYHSHPGFGCWLSGVDINTQQSFEALSDRAVAVVVDPIQSVKGKVVIDAFRTINPQSMALNQEPRQTTSNLGHLQKPSIQALIHGLNRHYYSIPIAYRTHDLEQKMLLNLNKLSWMDAVSVENYSKCGEQNKEHLKAMLKLAKNYKKALEDEKNMTDQELAIKNVGKMDPKRHIADEVSKMLNDNIVQSLAGMMATTSLQ,not soluble
13,MGSDKIHHHHHHMSLKELLKDRLSEEELKLVRRSFEIIGDVVIIEIPDEIMHHSRDIVEAILKRHKHVKTVLRKVGEVDGVYRVARYEPIYGEKTETVVREHGCRFLVDPTKAYYSVKLSGERERIARLVGEGERVLVMFAGVGPYPIVIAKLARPREVVGVELNPHAVEYFRQNVRLNKVEGVVKVIEGDVEEVVPQLSGQFDRVVMPAPYSAENFIHLLRGKVRRGGFVHYYTFDSQNEEKILPEKVRRKFEDEGLEVEVVKMRRCGNFAPYVNRYVLDLRVL,not soluble
14,MQEIGILENLQKSLALKEGMLSYEMLGKSLSYNPYLPRVIPQTKDCVFVTPDEVLEKLLKENTHTDCVIVNFKGLYEIGAPSVFNLEVLGLLRRHASSLIVHQDLFISHYQLLESLVQGSDGVVLDEELLKEDLKGMVEFSWRLGLSVFVETHKQDYTHLKDLGVLGVLEKVPHSQNQKRIVFLD,not soluble
15,MGSDKIHHHHHHMITIVKKVRNEIIRKIYRIPLFSNTADIAYQTAITQHTNHLPYLADSDLSLVKNLQEEGIVITSLTELSIPSTMEMLQAAKLLKTKIPINIAGNQNEFTVHASSEQIREHSSIFFWGLQERLLNIVENYLGLSVAYHGAYFRRDINNQVRKKSRLWHLDKEDRKMLKIIIYLNDVNEDGGPFEYIPKSLTSHISKSLKYDDTYIKDETMDQVVSSSYWQPCTGKSGAVIFVDTANIFHRGKLPLSSDRLSIFFDYTTRQPKHPFYCKSSLSNKDLLAVSAELSENQKQCIFWQHNYN,not soluble
16,MSSPSKRREMDMMKLMMSDYKVETINDGMQEFYVEFNGPKDSLYQGGVWKIRVELPDAYPYKSPSVGFITKIYHPNVDELSGSVCLDVINQTWSPMFDLVNVFETFLPQLLLYPNPSDPLNGEAAALMMRDRPAYEQRVKEYCEKYAKPGEGSEDKSSDEELSEEEYGSDNEDDDDDDVAIAGKPDP,not soluble
